This note sets out measurements from article PMC10216065 (Biomolecules, 2023).

B1: Mycobacterium tuberculosis SufU (Rv1465), tag state not told (natural protein)
chain: GSHMVTLRLEQIYQDVILDHYKHPQHRGLREPFGAQVYHVNPICGDEVTLRVALSEDGTRVTDVSYDGQGCSISQAATSVLTEQVIGQRVPRALNIVDAFTEMVSSRGTVPGDEDVLGDGVAFAGVAKYPARVKCALLGWMAFKDALAQASEAFEEVTDERNQRTG
B2: Mycobacterium tuberculosis SufS (Rv1464) (enzyme)
chain: GMTASVNSLDLAAIRADFPILKRIMRGGNPLAYLDSGATSQRPLQVLDAEREFLTASNGAVHRGAHQLMEEATDAYEQGRADIALFVGADTDELVFTKNATEALNLVSYVLGDSRFERAVGPGDVIVTTELEHHANLIPWQELARRTGATLRWYGVTDDGRIDLDSLYLDDRVKVVAFTHHSNVTGVLTPVSELVSRAHQSGALTVLDACQSVPHQPVDLHELGVDFAAFSGHKMLGPNGIGVLYGRRELLAQMPPFLTGGSMIETVTMEGATYAPAPQRFEAGTPMTSQVVGLAAAARYLGAIGMAAVEAHERELVAAAIEGLSGIDGVRILGPTSMRDRGSPVAFVVEGVHAHDVGQVLDDGGVAVRVGHHCALPLHRRFGLAATARASFAVYNTADEVDRLVAGVRRSRHFFGRA

Data set [1] addresses B2. The data set can be described thus: crystal structure. As to conditions: both partners purified.
The data set “SEC-MALS” deals with the molecule itself. The data set is described as follows: SEC-MALS. For orientation: Size exclusion chromatography separates by hydrodynamic size, large species first.

Take B1: the binding result in data set [1] is listed as “binds”. What is called stoichiometry N is a count of units in the complex or per binding partner. As to B2, the “stoichiometry N” value in the data set “SEC-MALS” is 2.
